Legend:
[1] = rabbit, in vivo
Method: This catheter was used in the following experiment. Three rabbits weighing 4 Kg were anesthetized with xylazine (0.1 ml/kg) and ketamine (0.5 ml/1 g i.m.). General anesthesia was maintained with α-chloralose (30 mg/Kg. i.v.). […] A femoral artery in the leg on one side of the rabbit was exposed. A 5F sheath was introduced and the catheter was pushed under fluoroscopic guidance to the right or left carotid artery. […] Radiocontrast fluid was infused (panel b) allowing confirmation of the catheter position, the patient artery, the balloon and the built-in radiopaque marker, as well as presence of the dye in the side branches. After balloon inflation, (panel c) 1 ml of fluoresceinated heparin (concentration 1 mg dissolved in 2 ml: biological activity of heparin as per manufacturer: 167 U) was infused between the occluded segment via the drug port and the artery pulsed immediately with the balloons in the inflated condition. Initially, field parameters tested were ˜60V and four pulses each of ˜600 μs pulse length. […] In a subsequent experiment, voltage and pulse length were changed to 57V and 22 ms, respectively. As before, four pulses were delivered from ECM 600 pulse exponential generator. […] In addition, fluorescence due to collagen and elastin was also present.

[2] = Molecular Probe, Inc.; cited from earlier work
[3] = rabbit, in vivo; remark: listed apart in the source
Method: Experiments were performed in 12 New Zealand white rabbits of either sex (2.5-3.4 kg) preanesthetized with xylazine (2 mg.kg^−1) and ketamine (50 mg.kg^−1) intramuscularly and an injection of alphachloralose (30 mg.kg^−1) intraveneously through an ear vein. A supplemental dose of 10 mg.kg^−1 chloralose was given every hour. The anesthetic state was maintained such that the toe-pinching reflex and corneal reflexes were absent.
Animals were placed supine and strapped on the surgical table. The trachea was intubated to allow spontaneous breathing of ambient air. Electrocardiogram (EKG) of the animal was obtained by using Lead II in differential mode. End-tidal CO2 tension was monitored by a CO2 analyzer (Datex, Puritan-Bennett). Body temperature was kept at the 38-38.5 °C range by radiant heating.
A longitudinal incision in the cervical region was made in the rabbit to expose the common carotid arteries on both sides. Approximately 6 cm in length of carotid artery on each side was isolated from the surrounding tissue and vagosympathetic nerve trunk. The caudal end of the carotid artery on one side was transiently occluded with a vascular clip at the junction between the neck and chest. A small incision was then made at the rostral end of the artery (just below transversus vein) to push an electroporator catheter (FIG. 1) through this incision. […]
Lead II EKG Nvas differentially amplified and the output was continuously monitored on an osciloscope (Tektronix) and recorded on a Gould TA-2000 thermal-array recorder for evaluation. […]
Arterial segments were subsequently freeze sectioned (10 micron) transversely. Microscopic slides containing arterial sections were observed under a Zeiss confocal laser (argon-krypton) scan microscope (LSM 410 Invert), (excitation at 495 nm and emission at 515 nm) to obtain video image (magnification 40 times) of fluorescence. Subsequently, control and test samples were compared by analyzing fluorescence intensity by Line Intensity Scan at different depths of the arterial wall using commercially obtained software (Image 1: Universal Imaging Corp.). […]

[4] = pig, in vivo; cited from earlier work

Substance: fluoresceinated heparin [F-heparin]
- penetration and uptake after autofluorescence correction and subtraction of control artery fluorescence [1]: deep penetration and uptake
- activity [2]: 167 unit/mg

Substance: heparin
- duration of sustained delivery in vessel [3]: at least 12 hours
- location in the vessel wall [3]: mostly present in the media but also in the intima
- washout of local delivery from vessel [3]: completely washes out in two hours

Substance: hirudin
- drug washed out of the vessel [4]: 80%
- level in vessel compared with passive delivery [4]: the level is the same as for the passive delivery

— US20050209548A1, “Electroporation-mediated intravascular delivery” (priority 2004, published 2005)
